From patent publication US8586357B2, “Markers of definitive endoderm” (ViaCyte, Inc., priority 2003, dated 2013)

Experiments:
hESCs (hESCyt-25) = assay: Q-PCR gene expression assay of marker genes in differentiating hESCs; assay type: cell-based, human; conditions: for suppression of AFP gene expression: in comparison to no treatment (10% FBS alone), FIG. 8A
Method: In the following experiments, real-time quantitative RT-PCR (Q-PCR) was the primary assay used for screening the effects of various treatments on HESC differentiation. In particular, real-time measurements of gene expression were analyzed for multiple marker genes at multiple time points by Q-PCR. Marker genes characteristic of the desired as well as undesired cell types were evaluated to gain a better understanding of the overall dynamics of the cellular populations. The strength of Q-PCR analysis includes its extreme sensitivity and relative ease of developing the necessary markers, as the genome sequence is readily available. Furthermore, the extremely high sensitivity of Q-PCR permits detection of gene expression from a relatively small number of cells within a much larger population. In addition, the ability to detect very low levels of gene expression provides indications for “differentiation bias” within the population. The bias towards a particular differentiation pathway, prior to the overt differentiation of those cellular phenotypes, is unrecognizable using immunocytochemical techniques. […] Additionally, Q-PCR provides a mechanism by which to evaluate the success of a differentiation protocol in a quantitative format at semi-high throughput scales of analysis.
The approach taken here was to perform relative quantitation using SYBR Green chemistry on a Rotor Gene 3000 instrument (Corbett Research) and a two-step RT-PCR format. Such an approach allowed for the banking of cDNA samples for analysis of additional marker genes in the future, thus avoiding variability in the reverse transcription efficiency between samples.
Primers were designed to lie over exon-exon boundaries or span introns of at least 800 bp when possible, as this has been empirically determined to eliminate amplification from contaminating genomic DNA.
We routinely used Q-PCR to measure the gene expression of multiple markers of target and non-target cell types in order to provide a broad profile description of gene expression in cell samples. The markers relevant for the early phases of hESC differentiation (specifically ectoderm, mesoderm, definitive endoderm and extra-embryonic endoderm) and for which validated primer sets are available are provided below in Table 1. […] This is an important fact since the hESCs were often grown on mouse feeder layers. Most typically, triplicate samples were taken for each condition and independently analyzed in duplicate to assess the biological variability associated with each quantitative determination.
To generate PCR template, total RNA was isolated using RNeasy (Qiagen) and quantitated using RiboGreen (Molecular Probes). Reverse transcription from 350-500 ng of total RNA was carried out using the iScript reverse transcriptase kit (BioRad), which contains a mix of oligo-dT and random primers. Each 20 μL reaction was subsequently diluted up to 100 μL total volume and 3 μL was used in each 10 μL Q-PCR reaction containing 400 nM forward and reverse primers and 5 μL 2×SYBR Green master mix (Qiagen). Two step cycling parameters were used employing a 5 second denature at 85-94° C. (specifically selected according to the melting temp of the amplicon for each primer set) followed by a 45 second anneal/extend at 60° C. Fluorescence data was collected during the last 15 seconds of each extension phase. A three point, 10-fold dilution series was used to generate the standard curve for each run and cycle thresholds (Ct's) were converted to quantitative values based on this standard curve. The quantitated values for each sample were normalized to housekeeping gene performance and then average and standard deviations were calculated for triplicate samples. At the conclusion of PCR cycling, a melt curve analysis was performed to ascertain the specificity of the reaction. A single specific product was indicated by a single peak at the Tm appropriate for that PCR amplicon. […]

hESCs = assay: Isolation of definitive endoderm cells by FACS using cell surface markers of Table 5 (Example 13); assay type: cell-based, human; conditions: 100, 50 or 25 ng/ml activin A; Example 13 written in present tense
Method: Using methods, such as those described in the above Examples, hESCs are differentiated to produce definitive endoderm. In particular, to increase yield and purity of definitive endoderm in differentiating cell cultures, the serum concentration of the medium is controlled as follows: 0% FBS on day 1, 0.2% FBS on day 2 and 2.0% FBS on days 3-6. Differentiating cell populations are grown in the presence of 100 ng/ml, 50 ng/ml or 25 ng/ml activin A, whereas non-differentiating control populations are grown in the absence of activin A.
An appropriate amount of labeled antibody that binds to one of the markers listed above is added to a sample of each culture and labeling proceeds on ice. Cells are washed by adding PBS and pelleted. A second wash with buffer is completed then cells are resuspended. Secondary antibody (FITC conjugated secondary antibody is added and allowed to label for about 30 minutes followed by two washes in buffer as above. Cells are resuspended and analyzed and sorted using a FACS. Cells are collected directly into RLT lysis buffer for subsequent isolation of total RNA for gene expression analysis by real-time quantitative PCR.

B1: Activin A: growth factor of the TGFβ superfamily, Nodal/Activin subgroup; definitive endoderm inducer (protein, UniProt P08476 311-426, looked up)
Inhibin beta A chain: GLECDGKVNICCKKQFFVSFKDIGWNDWIIAPSGYHANYCEGECPSHIAGTSGSSLSFHSTVINHYRMRGHSPFANLKSCCVPTKLRPMSMLYYDDGQNIIKKDIQNMIVEECGCS
SOX17 gene expression, dose response (hESCs (hESCyt-25); 0, 10, 30 or 100 ng/ml, 3 days adherent then 1, 3 and 5 days suspension culture, FIG. 11): dose-dependently increases
relative levels of CXCR4 gene expression with increasing dose (hESCs (hESCyt-25); 0, 10 or 100 ng/mL, 7 days, FIG. 32): dramatically increased
CXCR4 expression (hESCs (hESCyt-25); 100 ng/mL activin A (A100) vs no exogenous activin A (NF), 6 days, FIG. 26): high
CXCR4 level (hESCs (hESCyt-25); 100 ng/mL activin A, 10% FBS condition, 6 days, FIG. 26): remarkable decrease
mesoderm differentiation (expression of brachyury) (hESCs (hESCyt-25); 100 ng/ml, FIG. 14B): notable suppression
SOX17 induction compared to no factor medium controls (hESCs (hESCyt-25); 4-day time point, 10% serum): 5 fold
expression of brachyury relative to untreated control cultures (hESCs (hESCyt-25); 10 and 30 ng/ml, later time points, FIG. 14B): maintain the expression of brachyury at later time points
SOX17 gene expression relative to the undifferentiated control media (SR20) (hESCs (hESCyt-25); FIG. 7A): increases
difference in the level of SOX17 mRNA expression, Activin A vs retinoic acid treated hESCs (hESCs (hESCyt-25); FIG. 7A): 10 fold
expression of the visceral endoderm marker AFP, dose response (hESCs (hESCyt-25); FIG. 13A): dose-dependent decrease
expression of the neural marker ZIC1 (hESCs (hESCyt-25); FIG. 14A): not a dose-dependent effect
expression of MIXL1, GATA4 and HNF3b, dose response (hESCs (hESCyt-25); FIGS. 12A-C): dose-dependent increases
expression of SOX7 (primitive endoderm) and SPARC (parietal endoderm) (hESCs (hESCyt-25); FIGS. 13B-C): remain either unchanged or exhibit suppression at some time points
induction of SOX17 gene expression vs. undifferentiated hESCs (hESCs (hESCyt-25); day 4 of differentiation, Activin A at 100 ng/ml, medium with 10% serum, FIG. 19): 19 fold
SOX17 gene expression and cell number (hESCs (hESCyt-25); doses of 100 ng/mL or more): potently inducing
suppression of AFP gene expression (hESCs (hESCyt-25)): 6.8 fold
suppression of AFP gene expression (hESCs (hESCyt-25); listed as activin A): approximately 7 fold
number of cells positive for the Table 4 markers as dose is increased (hESCs): increase significantly
